The values that follow come from patent US20170210813A1 (Regeneron, published 2017).

The target of assay [1] is T1, Macaca fascicularis PDGFRb.mmh (Macaca fascicularis).
T1 construct: Soluble monomeric construct; also called mfPDGFRb.mmh
T1 chain: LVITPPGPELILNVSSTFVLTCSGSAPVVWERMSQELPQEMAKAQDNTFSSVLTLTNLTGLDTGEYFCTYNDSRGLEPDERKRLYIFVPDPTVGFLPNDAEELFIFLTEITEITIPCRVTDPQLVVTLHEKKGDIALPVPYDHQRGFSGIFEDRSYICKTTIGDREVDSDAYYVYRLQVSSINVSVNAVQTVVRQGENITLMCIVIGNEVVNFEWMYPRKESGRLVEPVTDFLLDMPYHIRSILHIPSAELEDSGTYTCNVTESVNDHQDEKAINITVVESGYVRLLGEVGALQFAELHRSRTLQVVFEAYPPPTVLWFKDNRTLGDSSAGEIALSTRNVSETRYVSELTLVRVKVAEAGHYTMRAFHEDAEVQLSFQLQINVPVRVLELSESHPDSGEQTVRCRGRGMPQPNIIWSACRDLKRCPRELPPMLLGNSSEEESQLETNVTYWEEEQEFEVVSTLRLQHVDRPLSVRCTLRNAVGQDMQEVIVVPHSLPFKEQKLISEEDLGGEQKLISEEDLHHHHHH
In words: SPR, mAb captured, 25 C. As for the experimental part: (§1) Antibodies, expressed as either mouse Fc (prefix H1M; H2M) or human Fc (prefix H4H), were captured on their respective anti-Fc sensor surfaces (Mab capture format). […] Kinetic association (kₐ) and dissociation (kd) rate constants were determined by processing and fitting the data to a 1:1 binding model using Scrubber 2.0 curve fitting software.

A further assay addresses T2, human PDGFRb.mFc (human).
T2 construct: Soluble dimeric construct with mouse Fc; also called hPDGFRb.mFc; soluble human PDGFR-beta.mFc
T2 chain: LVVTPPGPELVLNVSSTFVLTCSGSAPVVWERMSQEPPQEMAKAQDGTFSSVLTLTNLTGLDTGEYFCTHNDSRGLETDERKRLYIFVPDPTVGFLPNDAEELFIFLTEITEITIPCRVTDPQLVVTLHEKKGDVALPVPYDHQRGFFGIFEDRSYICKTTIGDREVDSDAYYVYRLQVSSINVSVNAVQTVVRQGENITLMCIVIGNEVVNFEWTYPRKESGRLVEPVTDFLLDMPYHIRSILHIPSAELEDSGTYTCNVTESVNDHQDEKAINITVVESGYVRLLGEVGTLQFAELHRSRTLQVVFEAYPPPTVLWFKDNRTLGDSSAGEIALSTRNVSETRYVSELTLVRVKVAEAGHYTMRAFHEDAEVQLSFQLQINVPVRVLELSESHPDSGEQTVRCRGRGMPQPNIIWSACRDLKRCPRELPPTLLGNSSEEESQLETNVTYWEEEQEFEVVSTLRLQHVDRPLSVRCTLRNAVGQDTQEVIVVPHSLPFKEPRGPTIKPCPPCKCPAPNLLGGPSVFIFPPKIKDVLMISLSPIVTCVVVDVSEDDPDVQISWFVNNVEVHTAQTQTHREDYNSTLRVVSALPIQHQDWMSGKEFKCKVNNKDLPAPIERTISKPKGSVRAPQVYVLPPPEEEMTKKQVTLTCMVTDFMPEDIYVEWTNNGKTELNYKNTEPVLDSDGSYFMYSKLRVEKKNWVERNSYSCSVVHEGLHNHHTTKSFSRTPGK
The assay can be described thus: SPR, mAb captured, 25 C. Here is the method:
as §1

Assay [2] has as its target T3, hPDGFRb.mmh (human, UniProt P09619 33-531).
T3 construct: Soluble monomeric construct; also called soluble human PDGFR-beta.mmh
In words: SPR, mAb captured, 25 C. Here is the method:
as §1

The target in assay [3] is T3, hPDGFRb.mmh. The assay can be described thus: blocking ELISA, biot-hPDGFRb.mmh to coated PDGF-BB.
Assay [4] concerns the target full length human PDGFR-beta on HEK293 cells (human, UniProt P09619 33-1106). The assay can be described thus: cell-based or functional assay.
The target in assay [5] is T3, hPDGFRb.mmh. In words: SPR, mAb captured, 37 C. As for the experimental part: as §1

T3 sequence (P09619 other isoform, or with tags, fused parts or gaps): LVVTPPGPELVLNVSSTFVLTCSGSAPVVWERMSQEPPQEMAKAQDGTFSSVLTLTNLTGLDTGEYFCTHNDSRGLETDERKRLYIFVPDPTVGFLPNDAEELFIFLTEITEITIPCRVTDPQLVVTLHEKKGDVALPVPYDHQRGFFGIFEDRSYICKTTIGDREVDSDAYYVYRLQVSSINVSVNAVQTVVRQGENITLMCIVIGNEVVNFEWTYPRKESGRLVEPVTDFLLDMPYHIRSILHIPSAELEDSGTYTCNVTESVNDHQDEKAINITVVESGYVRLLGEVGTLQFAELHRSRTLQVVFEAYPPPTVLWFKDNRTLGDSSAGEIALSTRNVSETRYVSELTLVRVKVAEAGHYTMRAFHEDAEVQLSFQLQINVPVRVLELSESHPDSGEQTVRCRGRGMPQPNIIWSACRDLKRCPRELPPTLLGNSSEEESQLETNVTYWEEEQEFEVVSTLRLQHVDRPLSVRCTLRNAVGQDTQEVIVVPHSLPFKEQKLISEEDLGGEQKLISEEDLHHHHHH
Chain of full length human PDGFR-beta on HEK293 cells (P09619 33-1106 limits assumed): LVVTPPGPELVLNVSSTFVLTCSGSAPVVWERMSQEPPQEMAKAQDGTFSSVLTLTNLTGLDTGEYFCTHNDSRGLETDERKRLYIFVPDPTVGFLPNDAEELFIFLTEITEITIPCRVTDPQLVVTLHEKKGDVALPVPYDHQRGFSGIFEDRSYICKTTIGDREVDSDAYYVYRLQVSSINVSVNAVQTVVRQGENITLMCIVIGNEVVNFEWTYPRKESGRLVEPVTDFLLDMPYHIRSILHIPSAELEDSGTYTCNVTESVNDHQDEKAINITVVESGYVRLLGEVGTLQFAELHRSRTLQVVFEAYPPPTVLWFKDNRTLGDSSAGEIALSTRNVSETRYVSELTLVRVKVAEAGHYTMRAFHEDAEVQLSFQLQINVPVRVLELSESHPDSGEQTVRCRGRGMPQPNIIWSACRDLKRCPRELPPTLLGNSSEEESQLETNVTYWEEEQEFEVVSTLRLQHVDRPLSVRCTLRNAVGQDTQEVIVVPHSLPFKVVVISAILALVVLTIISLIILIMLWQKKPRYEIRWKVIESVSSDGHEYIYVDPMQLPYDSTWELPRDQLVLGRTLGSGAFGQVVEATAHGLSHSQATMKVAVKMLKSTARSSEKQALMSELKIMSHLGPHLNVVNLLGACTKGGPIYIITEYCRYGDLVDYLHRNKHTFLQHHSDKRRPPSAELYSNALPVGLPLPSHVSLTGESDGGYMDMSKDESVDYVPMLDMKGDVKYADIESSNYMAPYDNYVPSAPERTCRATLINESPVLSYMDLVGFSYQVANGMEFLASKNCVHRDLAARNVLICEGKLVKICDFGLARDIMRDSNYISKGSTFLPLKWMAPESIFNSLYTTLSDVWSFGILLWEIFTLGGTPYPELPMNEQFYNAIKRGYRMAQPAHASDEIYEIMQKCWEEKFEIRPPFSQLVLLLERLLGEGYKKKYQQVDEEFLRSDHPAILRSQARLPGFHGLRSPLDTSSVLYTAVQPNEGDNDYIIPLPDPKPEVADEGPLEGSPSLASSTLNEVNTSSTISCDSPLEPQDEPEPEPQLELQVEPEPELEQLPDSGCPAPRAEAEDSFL

B1: H1M3374N (antibody, V domains shown)
VH: QLQLQESGPGLVKPSETLSLTCTVSGGSITSSSYYWGWIRQPPGKGLEWIGSIYYRGSTNYNPSLKSRVTISVDSSKNQFYLKVSSVTAVDTAVYYCARQNGAARPSWFDPWGQGTLVTVSS
VL: EIVLTQSPDTISLSPGERATLSCRASQSISSIYLAWYQQKPGQAPRLLIYGASSRVTGIPDRFSVSGSGTDFTLTISRLEPEDFAVYYCQHYGISPFTFGPGTKVDIR
notes: mouse Fc format; also called H2M3374N
With B1, in assay [1], the affinity, expressed as Kd, was 2.7 nM; the koff was determined as 0.000371 s⁻¹; the kon amounted to 137000 M⁻¹ s⁻¹; the t1/2 amounted to 31 min. In the assay with human PDGFRb.mFc, this molecule showed a Kd of 0.108 nM, a koff of 0.000107 s⁻¹, a kon of 996000 M⁻¹ s⁻¹ and a t1/2 of 108 min. In the assay with hPDGFRb.mmh [2], this molecule displayed a Kd of 1.99 nM, a koff of 0.000331 s⁻¹, a kon of 167000 M⁻¹ s⁻¹ and a t1/2 of 35 min. Further, in the assay with hPDGFRb.mmh [3], the “% Maximum Blocking” value turned out to be 88% and the IC50 was found to be 0.077 nM. Besides, in assay [4], the “IC50, blocking PDGF-BB (250 pM) activation, SRE-luciferase” value worked out at 3.1e-10 M and the “IC50, blocking PDGF-DD (400 pM) activation, SRE-luciferase” value came to 2.1e-10 M. In the assay with hPDGFRb.mmh [5], this molecule came in with a Kd of 1.71 nM, a koff of 0.00079 s⁻¹, a kon of 463000 M⁻¹ s⁻¹ and a t1/2 of 15 min.
